Substrate: O=C1C[C@@H](c2ccc(O)cc2)Oc2cc(O)cc(O)c21
Assay: cells, lysate or membranes
Conditions: NADPH 1.0 mM, 0.1 M sodium phosphate pH 7.0, 27°C (general assay conditions)

B1: CYP75A8 (Catharanthus roseus) (protein)
chain: MALEKLVLFDFLAAISILILVQKFIQIVFLRSSSRIRLPPGPKGWPIIGALPYLGTMPHSILANMAKKYGPIMYLKLGTNGMVVASTPDAVKAFLRTLDMNFSNRPIDAGATHLAYNAQDMVFAHYGPKWKLLRKLSNLHMLGGKALENWSNVRATELGYMLQAMYESSRKGETVVVPEMLTYAMANMIGQVILSRRVFVTKSLESNEFKDMVVELMTTAGYFNIGDFIPSIAWMDLQGIERGMKRLHKKFDALLTKMLEEHKSSSHKRKEKPDFLDYVLANRDNSEGERLTTTNIKALLLNLFTAGTDTSSSVIEWAISEMLKNPTILKRAQEEMDQVIGRNRRLMESDIPKLPYLQAICKETFRKHPSTPLNLPRIAQKDCQVNGYYIPKGTRLSVNIWAIGRDPNVWENPLEFNPDRFLSGKMAKIEPRGNDFELIPFGAGRRICAGTRMGIVLVEYILGTLVHSFDWKLPFDDINELNMDESFGLALQKAVPLVAMVSPRLPINAYSP
With B1 the Km (ATR1 reductase yeast expression system, assay conditions not separately printed) was 0.83 µM.

B2: CYP75A31 (Solanum lycopersicum) (protein)
chain: MALRINELFVAAIIYIIVHIIISKLITTVRERGRRLPLPPGPTGWPVIGALPLLGSMPHVALAKMAKKYGPIMYLKVGTCGMVVASTPNAAKAFLKTLDINFSNRPPNAGATHLAYNAQDMVFAPYGPRWKLLRKLSNLHMLGGKALENWANVRANELGHMLKSMFDASQDGECVVIADVLTFAMANMIGQVMLSKRVFVEKGVEVNEFKNMVVELMTVAGYFNIGDFIPKLAWMDIQGIEKGMKNLHKKFDDLLTKMFDEHEATSNERKENPDFLDVVMANRDNSEGERLSTTNIKALLLNLFTAGTDTSSSVIEWALAEMMKNPKIFKKAQQEMDQVIGKNRRLIESDIPNLPYLRAICKETFRKHPSTPLNLPRVSSEPCTVDGYYIPKNTRLSVNIWAIGRDPDVWENPLEFTPERFLSGKNAKIEPRGNDFELIPFGAGRRICAGTRMGIVVVEYILGTLVHSFDWKLPNNVIDINMEESFGLALQKAVPLEAMVTPRLSLDVYRC
B2 was tested, and the Km (ATR1 reductase) was 1.20 µM.

Source: publication PMC2825239
